Experimental data: patent US20160185837A1 (Medimmune Limited, priority 2013, published 2016)

T1: rat GLP-1 receptor (rGLP-1r) (Rattus norvegicus, UniProt P32301)
T1 construct: expressed in transfected cells; host or cells: HEK293s or CHO cells
T1 sequence (P32301 22-463): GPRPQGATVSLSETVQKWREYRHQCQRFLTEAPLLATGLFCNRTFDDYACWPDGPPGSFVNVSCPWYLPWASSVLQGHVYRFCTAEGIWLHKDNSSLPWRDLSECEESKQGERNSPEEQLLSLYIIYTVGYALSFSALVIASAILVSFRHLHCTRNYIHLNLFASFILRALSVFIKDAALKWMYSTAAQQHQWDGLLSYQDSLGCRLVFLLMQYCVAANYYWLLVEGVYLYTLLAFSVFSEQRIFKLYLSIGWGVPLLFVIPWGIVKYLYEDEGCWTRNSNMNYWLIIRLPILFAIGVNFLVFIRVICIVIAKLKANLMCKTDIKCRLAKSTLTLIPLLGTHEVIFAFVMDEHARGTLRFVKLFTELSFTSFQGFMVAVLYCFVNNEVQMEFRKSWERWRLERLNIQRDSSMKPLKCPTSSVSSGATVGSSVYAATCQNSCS

T2: mouse GLP-1 receptor (mGLP-1r) (Mus musculus, UniProt O35659)
T2 construct: expressed in transfected cells; host or cells: HEK293s or CHO cells
T2 sequence (O35659 22-463): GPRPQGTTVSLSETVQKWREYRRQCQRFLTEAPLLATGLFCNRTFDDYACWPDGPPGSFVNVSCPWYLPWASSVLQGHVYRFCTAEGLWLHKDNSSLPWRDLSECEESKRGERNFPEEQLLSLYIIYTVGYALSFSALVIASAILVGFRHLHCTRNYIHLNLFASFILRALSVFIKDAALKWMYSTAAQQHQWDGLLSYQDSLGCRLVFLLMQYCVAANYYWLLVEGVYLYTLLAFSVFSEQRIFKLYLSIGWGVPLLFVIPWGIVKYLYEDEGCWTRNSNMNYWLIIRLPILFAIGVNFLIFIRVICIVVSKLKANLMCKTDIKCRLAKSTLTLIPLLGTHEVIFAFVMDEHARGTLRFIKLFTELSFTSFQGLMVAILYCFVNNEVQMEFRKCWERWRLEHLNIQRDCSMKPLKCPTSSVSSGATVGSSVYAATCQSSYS

T3: human GIP receptor (hGIPr) (Homo sapiens, UniProt P48546)
T3 construct: expressed in transfected cells
T3 sequence (P48546 22-466): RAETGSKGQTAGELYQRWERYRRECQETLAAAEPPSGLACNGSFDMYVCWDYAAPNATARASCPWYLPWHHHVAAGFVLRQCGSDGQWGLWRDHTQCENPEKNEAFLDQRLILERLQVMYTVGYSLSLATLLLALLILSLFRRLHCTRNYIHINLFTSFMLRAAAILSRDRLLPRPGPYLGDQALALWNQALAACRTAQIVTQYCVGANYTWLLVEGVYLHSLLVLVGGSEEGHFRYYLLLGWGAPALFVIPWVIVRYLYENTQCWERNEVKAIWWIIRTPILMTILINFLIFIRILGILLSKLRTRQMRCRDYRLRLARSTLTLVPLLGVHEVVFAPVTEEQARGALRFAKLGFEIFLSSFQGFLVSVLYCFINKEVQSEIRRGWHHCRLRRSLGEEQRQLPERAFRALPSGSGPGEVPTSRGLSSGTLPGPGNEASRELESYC


Tests used:
Format in all cases: cell-based
[1] = target: T1, rat GLP-1 receptor (rGLP-1r); experiment: BSA-cAMP assay, cells expressing rat GLP-1 receptor
Procedure, shortened: (§1)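 EC50 is the midpoint of an unconstrained 4-parameter logistic fit to HTRF cAMP data, expressed as percent of maximal native agonist response, from two separate occasions. Rodent (mouse, rat) GLP-1R- or GIPR-expressing cells were incubated with compound 30 min at room temperature in 0.1% BSA medium, in duplicate.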

[2] = target: T2, mouse GLP-1 receptor (mGLP-1r); experiment: BSA-cAMP assay, cells expressing mouse GLP-1 receptor
Procedure, shortened: as §1

[3] = target: T3, human GIP receptor (hGIPr); experiment: BSA-cAMP assay, cells expressing human GIP receptor
Procedure, shortened: (§2)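 EC50 came from an unconstrained 4-parameter logistic fit of HTRF cAMP data expressed as percent of maximal native agonist activation, tested on two occasions. Thawed receptor-expressing cells (hGLP-1r, hGIPr at 0.5×10^5 cells/ml) treated 30 min at room temperature in 0.1% BSA-containing medium; two distinct hGIPr lines.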

[4] = target: T4, human GLP-1 receptor (hGLP-1r) (Homo sapiens, UniProt P43220); experiment: BSA-cAMP assay, cells expressing human GLP-1 receptor
T4 construct: expressed in transfected cells
Procedure, shortened: as §2

T4 sequence (P43220 24-463): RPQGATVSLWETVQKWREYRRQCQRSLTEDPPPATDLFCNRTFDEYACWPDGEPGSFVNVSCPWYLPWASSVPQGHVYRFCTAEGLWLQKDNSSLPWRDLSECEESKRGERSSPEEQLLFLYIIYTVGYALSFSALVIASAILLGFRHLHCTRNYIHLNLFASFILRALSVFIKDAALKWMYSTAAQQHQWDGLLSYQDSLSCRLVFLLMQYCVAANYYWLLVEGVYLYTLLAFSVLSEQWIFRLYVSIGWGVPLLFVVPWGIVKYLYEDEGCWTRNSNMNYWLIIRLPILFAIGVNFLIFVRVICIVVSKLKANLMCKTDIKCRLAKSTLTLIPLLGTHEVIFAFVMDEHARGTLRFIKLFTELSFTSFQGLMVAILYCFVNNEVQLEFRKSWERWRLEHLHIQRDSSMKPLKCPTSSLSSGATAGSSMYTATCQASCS

| EC50 ([1]; Batch 1, BSA-cAMP assay, read-out: rGLP1r cAMP activity EC50) | EC50 ([2]; Batch 1, BSA-cAMP assay, read-out: mGLP1r cAMP activity EC50) | EC50 ([3]; Batch 1, BSA-cAMP assay, read-out: hGIPr cAMP activity EC50) | EC50 ([4]; Batch 1, BSA-cAMP assay, read-out: hGLP1r cAMP activity EC50) | potency for GLP-1r, in words ([1]; rat receptor) | potency for GLP-1r, in words ([2]; mouse receptor) | potency for GIPr, in words ([3]; human receptor) | potency for GLP-1r, in words ([4]; human receptor) | Molecule |
| --- | --- | --- | --- | --- | --- | --- | --- | --- |
| 8 nM | 390 nM | 0.057 nM | 4.4 nM |  |  |  |  | IP367 (protein) YSEGTFTSDYRILKERQAIDEFIAWLLKGGAAAGGSGSTASSGSGSATGGGGAATHTCPPC |
|  |  |  |  | high potency | high potency | high potencies | high potency | IP088: Fc fusion, IgG1-TM, SEQ ID NO:105; agonist peptide YSEGTFTSDYSKLLEEEAVRLFIEWLVKGP (SEQ ID NO:15) (protein, also: Fc fusion, IgG1-TM) YSEGTFTSDYSKLLEEEAVRLFIEWLVKGPAAAGGSGSTASSGSGSATGGGGAATHTCPPCPAPEF |
